The text below walks through data of article PMC3113405 (Nature structural & molecular biology, 2010).

For assay [1], the target named is T1, Cog2 with an N-terminal 7×His tag (S. cerevisiae, UniProt P53271 1-262).
T1 sequence (looked up): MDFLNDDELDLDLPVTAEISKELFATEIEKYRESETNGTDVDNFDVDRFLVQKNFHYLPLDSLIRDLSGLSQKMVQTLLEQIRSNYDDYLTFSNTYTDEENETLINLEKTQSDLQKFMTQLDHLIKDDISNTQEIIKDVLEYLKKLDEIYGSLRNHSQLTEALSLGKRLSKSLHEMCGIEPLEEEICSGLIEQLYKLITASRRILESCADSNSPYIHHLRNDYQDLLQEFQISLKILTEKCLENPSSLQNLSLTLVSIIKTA
In words: negative-stain single-particle electron microscopy with GFP labelling.

For assay [2], the target named is T2, Cog8 (S. cerevisiae, UniProt Q04632 1-607).
T2 sequence (looked up): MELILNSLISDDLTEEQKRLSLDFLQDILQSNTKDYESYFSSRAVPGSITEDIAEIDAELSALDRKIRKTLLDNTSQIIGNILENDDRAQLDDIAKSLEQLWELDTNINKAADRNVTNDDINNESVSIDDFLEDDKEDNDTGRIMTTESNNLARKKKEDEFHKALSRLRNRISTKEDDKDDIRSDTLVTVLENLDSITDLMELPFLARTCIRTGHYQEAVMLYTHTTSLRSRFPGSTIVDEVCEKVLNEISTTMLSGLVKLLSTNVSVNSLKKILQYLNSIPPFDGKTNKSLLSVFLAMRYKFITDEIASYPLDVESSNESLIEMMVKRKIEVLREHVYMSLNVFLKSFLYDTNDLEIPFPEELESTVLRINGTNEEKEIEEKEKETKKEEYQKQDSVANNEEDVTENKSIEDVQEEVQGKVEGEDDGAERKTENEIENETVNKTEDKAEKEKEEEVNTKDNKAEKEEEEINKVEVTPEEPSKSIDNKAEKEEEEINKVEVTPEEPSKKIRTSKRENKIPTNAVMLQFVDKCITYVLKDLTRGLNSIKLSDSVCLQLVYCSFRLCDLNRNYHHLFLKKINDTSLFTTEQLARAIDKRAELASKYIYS
In words: negative-stain single-particle electron microscopy.

B1: Cog1 (natural protein, S. cerevisiae, UniProt P53079 1-417, looked up)
chain: MDEVLPLFRDSHIPQIKDYQLELQNDLTKTNEAFQKNLLKNYNKILSLTDSVNDLSLNLKNVDQDFKSLCFNDEKFQLNKLTPLPYQTTTHISPPRDEEKVSIPSQNILVISNWTISINNFCNRIVTSTTPSRIFDELLLNFHELSLIPVPSKFEALVKDKCCRLQKFLVDSMKTLNLTLLQWVKLYNLLNTEFSSKWDDDLLSIFNESLFETLFNDNVQALLISSANSKDHQYHSNQQYKDAIVVDFVNSSTFRDHLIRRTVKEINTHLDTLSTLRAKLKEPETLHKLDIFHDNDTNLNDGTVSPLDDDALKQYIDTAVFYSKGLTNDTTLQIYQTVQPTIEILQNLELYKCPQETLTDLRNKLITQLQEFKTQISSRLPSPLENSTSVVDDFITSYNNHNLLQLVIDQITQLRQQ
The term stoichiometry N denotes the number of molecules, sites or subunits per partner or assembly. Turning to B1, in assay [1], the “stoichiometry N” value came out at 1. The binding result in assay [2] is given as “binds”.

B2: Cog3 (natural protein, S. cerevisiae, UniProt P40094 1-801, looked up)
chain: MARSRKNSLVRDIASHPTIPESQTIVGLLDDSYLFDKLKKLSLAVENSDSLQRTDVSEGCSEVNGSEATTSADVKKTNKYLYYTTYLDQLNIKIDEYKVVLDQTRQVNDQLDSSIKKFRKISQDTGAFIEETKTIYEKQSKLSNLTESIPKALHYFEVLDPIMRRLNHATSPAIVKKSSFTTMLATIDESLRFLDENSDLKDAAAYRIKFKQCLIRACELISHFLTNLLKQTNQEILDKTKNKNSLTGLPSTTRDAFLYSKFYTIADTFKIQVSEIVKRSNEKAYNKYHDELNSILYECFNHYFQTRLRLLTPVIWSHIDEIVVKDKDQGLVKFIQDGKVYFQQLCADEYKLFVEFFPEKECRFKINQWFLQLCEPLYDSIRVRVLKETDICTLCDSVTLFAPYYEFEEGSEEYVKQFTDIQYDKLFEPIVQKVQARLILRVQIYVQQNILSYRPTRDVFMISNRRRKSKTSLQGGNEDATTSDDNPDPLLESYLSSFKNRSILPISPNDADDKSIDSEESTDKISQLQTYYPPLLKTLALLSKIYEMINSVVFDDLAHHVVHDCIVSLRNAYDMVIKSSAGKSDFNNLDISLAYLKNLLMLRDSIQNFNIQYTVNETYLDFSGVEGFFKSLKENGRNVLKKTKSSSILTLARELVPKVVNNMVDARTELISELRNVIKDFTESTSLELIDDTLDINSDEDLLSKNVKLRENIKARLPRIYEQILNYIDDQEIVTNLLDAVQELITQSYSKYYETITELAENGKFAKDQVADVMYLDVFTDFFAKEVADLLRNGDIDTITK
Regarding B2, the “stoichiometry N” value in assay [1] stood at 1.

B3: Cog4 (natural protein, S. cerevisiae, UniProt Q06096 1-861, looked up)
chain: MEGQKSNASWESSIIEGQLSKNLARYTLLLDKLSTLSQIDKLSEVIANDYAKQSKQLNAFVQQSQSSLNKESRKLELQRTNLTTTLTQFHETVATISSSNARAKAIHDDIETVDQERALVNKTLQFVKDVRTLKNNISLAHSALETKDYLVAATAINEIRSLPDKKLIVSEFAKKVVPSSEIPEEPAILIKNWCKELTSLFQEQFMEATRTQDIKELTLMFKMFPMIGQDVLGLDLYSKYVCDIIADESRKIMSNSMENSTKFQGFFSQVLLHLFKIVSTIINDHSKVIATCYGKKHMVHVMEKVEKEADLQASLILDIFMETRKIERTIHDINEWEHSQKNEDVNIDSNQSDIETDGETEKSSIISIHDLALLIMEFSQILQNWSMYSRFYSVKWNEFSDLHPHVLQPPPPIADGKFALKLKQDKVFDEFQVFVLNHLQRSFRNSISLEELPSLNDLITAVPLNDHDNISYPVTSVLDDLILLVRKNLISVVNTGQFKLLASFLNELVKFFQNRFLVKFMQNKFKLLQSKLASNVSLKRYIPKGEEQSATSRSVSPPANKFSPLSRFTFRGAAASALTNIQSNLQAVVAEDEDSILALHHYLIYLNTLYLSKVYVHRLLSIEILEDDSQRILRDNFPFDNDAAQLQNLIINSEKLVLEQTDKLSKWAVKYLFQNILQNRVRNLLGTVFVNSASSNSSTSNQKNVSRDYSAGSNQKNYITSIEDFEDLSQINSFNSKWNQLIIPYKNILHNEAYAELLSVIVDYIVTTLEQRIWTLEFNELGVTKLDRELSLFIGNMCGLNYNLREKFLKLTQIVLLLGLDDDNFDLTTGDIKDDFNGTFDWVINSQERIKARNMKIDRTQ
On to B3, for which, in assay [1], the “stoichiometry N” value is 1.
